Experimental data reported in patent US20230218738A1 (Pfizer, published 2023).
Changes are numbered by the printed parent chain.

B1: AM22 (antibody, V domains shown)
VH: QVQLVQSGAEVKKPGATVKVSCKISGHTLIKLSIHWVRQAPGKGLEWMGGYEGEVDEIFYAQKFQHRLTVIADTATDTVYMELGRLTSDDTAVYFCGTLGVTVTEAGLGIDDYWGQGTLVTVSS
VL: EIVLTQSPGTLSLSPGERATLSCRASQIVSRNHLAWYQQKPGQAPRLLIFGASSRATGIPVRFSGSGSGTDFTLTINGLAPEDFAVYYCLSSDSSIFTFGPGTKVDFK
B2: MPE8 (antibody, V domains shown)
VH: EVQLVESGGGLVKPGGSLRLSCAASGFTFSSYSMNWVRQAPGKGLEWVSSISASSSYSDYADSAKGRFTISRDNAKTSLFLQMNSLRAEDTAIYFCARARATGYSSITPYFDIWGQGTLVTVSS
VL: QSVVTQTPSVSGAPGQRVTISCTGSSSNIGAGYDVHWYQQLPGTAPKLLIYDNNNRPSGVPDRFSASKSGTSASLAITGLQAEDEADYYCQSYDRNLSGVFGTGTKVTVL
notes: also called MPEG

Experiments:
Test in all cases: BLI (Octet), F on anti-HIS tip, 20 nM mAb
[1] = molecular target: RSV F protein mutant pXCS760 (RSV A2, UniProt P03420 26-109)
[2] = molecular target: T1, RSV F protein mutant pXCS830 (RSV A2, UniProt P03420 26-109)
T1 chain 1: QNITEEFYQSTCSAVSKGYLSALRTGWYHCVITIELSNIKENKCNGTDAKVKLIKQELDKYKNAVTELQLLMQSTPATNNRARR
T1 chain 2: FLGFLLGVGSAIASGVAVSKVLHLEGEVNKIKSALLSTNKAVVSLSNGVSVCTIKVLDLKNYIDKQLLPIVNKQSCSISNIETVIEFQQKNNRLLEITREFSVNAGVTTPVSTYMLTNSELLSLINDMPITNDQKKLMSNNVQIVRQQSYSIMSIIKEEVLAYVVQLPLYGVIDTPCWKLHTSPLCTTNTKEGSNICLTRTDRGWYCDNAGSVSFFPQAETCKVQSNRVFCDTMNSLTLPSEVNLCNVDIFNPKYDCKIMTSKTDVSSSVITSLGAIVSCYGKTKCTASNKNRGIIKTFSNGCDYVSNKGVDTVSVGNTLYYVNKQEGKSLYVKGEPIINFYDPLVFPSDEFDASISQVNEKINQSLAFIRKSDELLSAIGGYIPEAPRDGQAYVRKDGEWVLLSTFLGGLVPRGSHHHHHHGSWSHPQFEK

[3] = molecular target: RSV F protein mutant pXCS847 (RSV A2, UniProt P03420 26-109)
[4] = molecular target: T2, RSV F protein mutant pXCS881 (RSV A2, UniProt P03420 26-109)
T2 chain 1: T1 chain 1
T2 chain 2: T1 chain 2 with L6C, I54S, V160I, N235C, D350S, E351Q, D353S

[5] = molecular target: T3, RSV F protein mutant pXCS892 (RSV A2, UniProt P03420 26-109)
T3 chain 1: T1 chain 1
T3 chain 2: T1 chain 2 with V160I

[6] = molecular target: T4, RSV F protein mutant pXCS734 (RSV A2, UniProt P03420 26-109)
T4 chain 1: T1 chain 1
T4 chain 2: T1 chain 2 with L6C, I54S, N235C

[7] = molecular target: T5, RSV F protein mutant pXCS738 (RSV A2, UniProt P03420 26-109)
T5 chain 1: T1 chain 1
T5 chain 2: T1 chain 2 with L6C, I54S, V160I, N235C

Row | Binder | Response (nm shift) [1] [nm] | Response (nm shift) [2] [nm] | Response (nm shift) [3] [nm] | Response (nm shift) [4] [nm] | Response (nm shift) [5] [nm] | Response (nm shift) [6] [nm] | Response (nm shift) [7] [nm]
1 | B1 | 0.121 | 0.465 | 0.484 | 0.178 | 0.542 | 0.284 | 0.273
2 | B2 | 0.151 | 0.923 | 0.871 | 0.763 | 1.03 | 0.818 | 0.741
